In patent US20040081647:

target: recombinant human TNFα (RDI) (UniProt P01375)
Sequence (P01375 77-233): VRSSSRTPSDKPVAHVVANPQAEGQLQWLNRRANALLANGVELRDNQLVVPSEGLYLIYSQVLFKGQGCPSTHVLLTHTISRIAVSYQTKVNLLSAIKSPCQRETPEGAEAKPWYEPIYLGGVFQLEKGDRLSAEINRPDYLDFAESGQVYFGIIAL

MMP12, sequence (P39900 106-470): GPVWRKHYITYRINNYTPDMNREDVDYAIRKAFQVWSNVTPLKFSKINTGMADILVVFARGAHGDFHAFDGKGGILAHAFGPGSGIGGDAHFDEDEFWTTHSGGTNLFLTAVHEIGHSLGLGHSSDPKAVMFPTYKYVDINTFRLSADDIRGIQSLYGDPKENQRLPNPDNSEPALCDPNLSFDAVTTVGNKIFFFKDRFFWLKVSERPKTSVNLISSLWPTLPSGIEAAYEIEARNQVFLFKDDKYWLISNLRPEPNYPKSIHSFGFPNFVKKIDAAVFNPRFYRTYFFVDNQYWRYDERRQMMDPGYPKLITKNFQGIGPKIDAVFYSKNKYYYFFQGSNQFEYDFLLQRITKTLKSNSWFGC
Plasmin, sequence (P00747 20-580): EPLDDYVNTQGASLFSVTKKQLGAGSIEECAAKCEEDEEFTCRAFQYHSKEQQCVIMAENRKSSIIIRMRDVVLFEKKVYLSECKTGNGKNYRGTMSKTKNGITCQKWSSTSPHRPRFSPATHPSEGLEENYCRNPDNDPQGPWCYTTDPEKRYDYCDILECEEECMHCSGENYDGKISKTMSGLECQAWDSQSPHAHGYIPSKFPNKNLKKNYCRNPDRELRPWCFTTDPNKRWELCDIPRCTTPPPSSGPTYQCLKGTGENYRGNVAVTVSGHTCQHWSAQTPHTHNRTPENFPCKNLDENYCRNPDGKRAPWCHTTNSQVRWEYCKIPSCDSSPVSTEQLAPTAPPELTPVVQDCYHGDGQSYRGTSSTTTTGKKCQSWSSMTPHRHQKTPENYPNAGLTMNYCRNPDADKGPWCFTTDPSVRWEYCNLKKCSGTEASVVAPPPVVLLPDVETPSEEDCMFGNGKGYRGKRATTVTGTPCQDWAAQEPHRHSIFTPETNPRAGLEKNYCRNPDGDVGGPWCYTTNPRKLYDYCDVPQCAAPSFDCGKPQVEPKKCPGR
Plasmin, sequence (P00747 581-810): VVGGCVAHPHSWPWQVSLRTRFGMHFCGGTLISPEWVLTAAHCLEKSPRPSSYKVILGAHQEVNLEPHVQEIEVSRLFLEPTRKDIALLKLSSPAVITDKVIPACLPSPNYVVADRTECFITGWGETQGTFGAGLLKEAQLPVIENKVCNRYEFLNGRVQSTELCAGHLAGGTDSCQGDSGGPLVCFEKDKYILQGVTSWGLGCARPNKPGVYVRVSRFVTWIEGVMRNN

Row | Substance | inactivation of TNFα (L929 cytotoxicity bioassay after overnight digestion) | log reduction in TNFα activity (L929 cytotoxicity bioassay after overnight digestion)
1 | ADAM10 | ADAM10 (under: Proteases that did not inactivate TNF) | 
2 | CHYMOTRYPSIN |  | CHYMOTRYPSIN (2.74)
3 | ELASTASE |  | ELASTASE (1.45)
4 | Enterokinase | Enterokinase (under: Proteases that did not inactivate TNF) | 
5 | Furin | Furin (under: Proteases that did not inactivate TNF) | 
6 | HIV Protease | HIV Protease (under: Proteases that did not inactivate TNF) | 
7 | Kallikrein5 | Kallikrein5 (under: Proteases that did not inactivate TNF) | 
8 | MMP3 | MMP3 (under: Proteases that did not inactivate TNF) | 
9 | MMP12 |  | MMP12 (0.65)
10 | MT1-MMP |  | MT1-MMP (0.86)
11 | MT5-MMP | MT5-MMP (under: Proteases that did not inactivate TNF) | 
12 | Plasmin | Plasmin (under: Proteases that did not inactivate TNF) | 
13 | TACE | TACE (under: Proteases that did not inactivate TNF) | 
14 | TRYPSIN |  | TRYPSIN (2.3)
15 | Tryptase |  | Tryptase (0.62)
16 | Urokinase | Urokinase (under: Proteases that did not inactivate TNF) | 
